Laboratory results reported in patent US20240245800A1, “HIGHLY SPECIFIC RABBIT SINGLE -DOMAIN ANTIBODIES FOR DRUG DELIVERY IN IMMUNOTHERAPY APPLICATIONS” (TECHNOPHAGE, INVESTIGAÇÃO E DESENVOLVIMENTO EM …, priority 2021, published 2024).
“Also recorded” adds a separate entry of the source.

Experiments:
CLBL-1 cells [1] = assay: Flow cytometry binding of C5 VL sdAb to CLBL-1 cells; type: cell-based, canine; details: 3 μM C5, 37° C., different timepoints
Description: (§1) FIG. 8. Binding and internalization characterization of C5 VL sdAb. C5 binding and internalization properties against CLBL-1 cells were evaluated by cytometry and immunofluorescence. A) For flow cytometry analysis, 1×10^6 of CLBL-1 cells were incubated with Live/Dead reagents for 30 minutes. Then, 3 μM of C5 were incubated with the cells for different timepoints at 37° C. After, cells were washed, fixed, permeabilized, and incubated for 30 min with anti-HA antibody, washed twice and incubated with anti-rat Alexa Fluor-488. […] B) By contrast, no binding of C5 was detected with Jurkat cells. C) To confirm the binding of C5 to the CLBL-1 verified by flow cytometry, we evaluated its distribution on the cells by immunofluorescence assay. […] Representative microphotographs with C5 (green) and DAPI stained-nuclei (blue) are shown.
To evaluate the binding of the VL C5 to the CLBL-1 cells, a FACS analysis was performed. […]
(§2) The C5 VL sdAb binding and cellular internalization properties towards CLBL-1 cells were studied by cytometry analysis and immunofluorescence. […] Live/dead reagent was used to exclude dead cells and the background noise was also evaluated in the control with the secondary antibody (data not shown). To better characterize the binding of the C5 to the CLBL-1 cells, we further evaluated the internalization of the C5 sdAb on the cells using an immunofluorescence assay. […]

Jurkat cells [2] = assay: Flow cytometry binding of C5 VL sdAb to Jurkat cells; type: cell-based, human
Description: as §1, §2

Jurkat cells [3] = assay: Immunofluorescence of C5 with Jurkat cells; type: cell-based, human
CLBL-1 cells [4] = assay: WST-1 cell viability assay on CLBL-1 cells; type: cell-based, canine; details: 48 h treatment
Description: (§3) FIG. 11—Cytotoxic effects of C5-DAB-SN-38. To determine the effect of C5-DAB-SN-38 on CLBL-1 and Jurkat cells, a cell viability assay was performed using the WST-1 reagent. 6×10^4 cells were seeded and treated with increasing amounts of compound. After 48 h treatment, cell viability was assessed. […] B) On the other hand, ADC had no effect on Jurkat cells, proving the specificity of the ADC. C5 was used as control. Best-fit EC50 values of each formulation were calculated using GraphPad Prism software (version 9.2.0, San Diego, CA, USA) using the log (inhibitor) vs response (variable slope) function. D) Effects of C5-DAB-SN-38 on DNA TopoI activity. To evaluate the effects of C5-DAB-SN-38 on DNA Topo I, we evaluated its activity using the Human Topoisomerase I Assay Kit. […]
(§4) To determine the effect of VL-DAB-SN-38 in CLBL-1 and Jurkat cell proliferation, a cell viability assay was performed using the Cell Proliferation Reagent WST-1 (Roche, Basel, Switzerland). […] After 48 h treatment, cell viability was assessed using WST-1, following the manufacturer's instructions. Absorbance at 450 nm was measured using the iMark microplate Reader (Bio-Rad). […] Best-fit EC50 values of each formulation were calculated using GraphPad Prism software (version 8.0, San Diego, CA, USA) using the log (inhibitor)) vs response (variable slope) function.

Jurkat cells [5] = assay: WST-1 cell viability assay on Jurkat cells; type: cell-based, human; details: 48 h treatment
Description: as §3, §4

Human Topoisomerase I = molecular target: T1, Human Topoisomerase I (Homo sapiens, UniProt P11387); assay: DNA Topo I activity assay (Human Topoisomerase I Assay Kit); type: biochemical; details: 10 U Topo I, supercoiled DNA, agarose gel
T1 construct: purchased Topogen
T1 sequence (P11387 1-765): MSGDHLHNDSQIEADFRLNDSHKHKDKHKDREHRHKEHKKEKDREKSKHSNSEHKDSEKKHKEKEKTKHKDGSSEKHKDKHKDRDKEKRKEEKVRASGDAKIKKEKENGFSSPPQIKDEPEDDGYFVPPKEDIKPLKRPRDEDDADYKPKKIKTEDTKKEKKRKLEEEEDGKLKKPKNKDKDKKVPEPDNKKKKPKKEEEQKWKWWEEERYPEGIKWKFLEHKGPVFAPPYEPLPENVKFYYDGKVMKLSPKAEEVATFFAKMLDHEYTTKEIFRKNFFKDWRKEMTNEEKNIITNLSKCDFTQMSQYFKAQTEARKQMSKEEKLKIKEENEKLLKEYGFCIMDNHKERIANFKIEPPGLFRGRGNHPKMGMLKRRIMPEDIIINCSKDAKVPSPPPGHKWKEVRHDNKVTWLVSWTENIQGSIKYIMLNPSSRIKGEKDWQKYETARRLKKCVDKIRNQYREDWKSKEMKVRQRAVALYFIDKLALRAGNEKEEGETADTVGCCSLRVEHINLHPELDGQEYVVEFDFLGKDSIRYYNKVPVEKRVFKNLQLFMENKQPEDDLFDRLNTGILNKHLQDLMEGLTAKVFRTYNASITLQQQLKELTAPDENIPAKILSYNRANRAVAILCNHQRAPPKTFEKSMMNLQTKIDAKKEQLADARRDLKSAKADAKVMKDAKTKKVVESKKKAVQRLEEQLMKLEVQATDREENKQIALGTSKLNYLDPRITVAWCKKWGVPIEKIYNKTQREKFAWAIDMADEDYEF
Description: FIG. 11—Cytotoxic effects of C5-DAB-SN-38. To determine the effect of C5-DAB-SN-38 on CLBL-1 and Jurkat cells, a cell viability assay was performed using the WST-1 reagent. 6×10^4 cells were seeded and treated with increasing amounts of compound. After 48 h treatment, cell viability was assessed. […] B) On the other hand, ADC had no effect on Jurkat cells, proving the specificity of the ADC. C5 was used as control. Best-fit EC50 values of each formulation were calculated using GraphPad Prism software (version 9.2.0, San Diego, CA, USA) using the log (inhibitor) vs response (variable slope) function. D) Effects of C5-DAB-SN-38 on DNA TopoI activity. To evaluate the effects of C5-DAB-SN-38 on DNA Topo I, we evaluated its activity using the Human Topoisomerase I Assay Kit. After incubation of C5-DAB-SN-38 with 1× reaction buffer and 10 U of Topo I for 1 h at 37° C., the supercoiled DNA was added. To stop the reaction, stop loading buffer was added. DNA TopoI activity was visualized by 1% agarose gel electrophoresis […] with ethidium bromide. Relaxed DNA indicated TopoI activity while supercoiled DNA indicated an inhibition. […] Relaxed DNA and supercoiled DNA were used as positive/negative controls. C5 and SN-38 were also used as controls.
Topo I activity on VL-DAB-SN38 was determined using the Human Topoisomerase I Assay Kit (Topogen, CO, USA) according to the manufacturer's instructions. […]

CLBL-1 xenograft tumours = details: mouse, in vivo
Description: C5 was radiolabelled with ^99mTc(CO)3(H2O)3 and intravenously injected in the tail vein of a xenograft mice model of cNHL. Mice were sacrificed at 15 min and 3 h and the radioactivity of each organ was measured. The activity in each organ was calculated and expressed as a percentage of injected radioactivity dose per gram of organ or tissue (% ID/g).
Radiochemical purity (RP) was checked by Reversed-phase high-performance liquid chromatography (RP-HPLC) and instant thin-layer chromatography silica gel (ITLC-SG, Agilent Technologies, USA). […] Radioactivity distribution on the ITLC-SG strip was evaluated using a miniGita Star scanning device (Elysia-Raytest, (Germany) coupled with a Gamma BGO-V-Detector (Elysia Raytest). For purification and concentration of the ^99mTc-labeled sdAb, a 3 K Amicon (Merck Milipore) was used. ^99mTc(CO)3—C5 diluted in PBS was used for the biodistribution studies after RP determination by ITLC-SG. For that, mice were intravenously injected in the tail vein with 100 μl of ^99mTc(CO)3—C5 and sacrificed by cervical dislocation at 15 min, and 3 h after injection. Radioactivity was measured using a dose calibrator (Carpintec CRC-15W). After the removal of the tumour and tissues of interest, their radioactivity was measured using a γ-counter (Berthold, Germany). […]

B1: C5: rabbit derived anti-cNHL VL sdAb clone, SEQ. ID. 3; ^99mTc radiolabelled for biodistribution (antibody, listed as Oryctolagus cuniculus, V domains shown)
VL: ELDLTQTPSPVSASVGGTATINCQASQSVYNNYWWAWYQQRPGHPPKLLIYETSKLASGVPSRFKGSGSGTQFTLTIIDVQCDDAATYVCAGGYGTVIDNAFGGGTELEIL
modifications: 99mTc(CO)3 radiolabel
notes: ID; ^99mTc radiolabelled for biodistribution
In the case of B1, the “binding to CLBL-1 cells (flow cytometry)” value (CLBL-1 cells [1]) is reported as “specifically binds; also recorded: demonstrated to bind”, the “binding to CLBL-1 cells (flow cytometry)” value (CLBL-1 cells [1]; listed as VL C5) is reported as “shown to bind to the cells, increasing its interaction with time” and the “binding to Jurkat cells (flow cytometry)” value (Jurkat cells [2]) is reported as “no binding interaction”. For the same molecule, the “fluorescence with Jurkat cells (immunofluorescence)” value (Jurkat cells [3]) was “no detectable fluorescence”, the “effect on CLBL-1 (cNHL) cell viability/proliferation” value (CLBL-1 cells [4]) was “does not affect cell proliferation” and the “effect on Jurkat cell viability/proliferation” value (Jurkat cells [5]) was “does not affect cell proliferation”. For the same molecule, the “effect on DNA Topo I activity” value (Human Topoisomerase I) was “not able to alter enzyme activity” and the “elimination from blood and major organs” value (CLBL-1 xenograft tumours) was “fast elimination”.
